Assay results from patent US20090054327A1.
pKd: −log10 of the molar value.

Columns and labels:
[1] = target: actin filaments; assay: F-actin high-speed co-sedimentation, direct comparison with dystrophin
[2] = target: actin filaments; assay: F-actin high-speed co-sedimentation

Substance | extent of lateral association with actin filaments (stoichiometry) (actin monomers per utrophin molecule) [1] | Bmax (actin monomers per dystrophin molecule) [2] | pKd [2]
full-length recombinant utrophin (from UniProt G3V7L1 1-3418) | 14 | – | –
recombinant full-length mouse dystrophin (from UniProt P11531 1-3678) | – | 24 | 6.40
